Reference: the supplement of paper PMC9112550, “Optimization of the antimicrobial peptide Bac7 by deep mutational scanning” (BMC Biology, 2022)

tested on: Escherichia coli TOP10; experiment: shrunken log2 fold change of peptide-encoding DNA abundance (4.5 h post-induction vs induction); higher = less antimicrobial activity (less host growth inhibition); settings: time post-induction: 4.5 h; library: site-saturation at positions 5, 18, 19, 20
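Also: peptides expressed intracellularly from a pBAD plasmid library in pooled LB shake-flask culture, induced with 0.3% L-arabinose, DNA abundance read by NGS, three biological replicates, DESeq2 with apeglm shrinkage.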

| Sequence | shrunken log2 fold change |
| --- | --- |
| RRIRVRPPRLPRPRPRPCWYPRP | -0.544 |
| RRIRPRPPRLPRPRPRPCIFPRP | -0.359 |
| RRIRRRPPRLPRPRPRPSCPPRP | 0.941 |
| RRIRWRPPRLPRPRPRPRWHPRP | 0.271 |
| RRIRLRPPRLPRPRPRPIKVPRP | -0.135 |
| RRIRYRPPRLPRPRPRPHPKPRP | -0.0588 |
| RRIRFRPPRLPRPRPRPLGYPRP | 0.0222 |
| RRIRCRPPRLPRPRPRPYHVPRP | -0.0591 |
| RRIRFRPPRLPRPRPRPYHDPRP | -0.722 |
| RRIRARPPRLPRPRPRPLGIPRP | -0.12 |
| RRIRIRPPRLPRPRPRPCKFPRP | -0.549 |
| RRIRRRPPRLPRPRPRPVAFPRP | 0.383 |
| RRIRTRPPRLPRPRPRPYSFPRP | -0.552 |
| RRIRERPPRLPRPRPRPFNRPRP | -0.0972 |
| RRIRIRPPRLPRPRPRPVAAPRP | 0.176 |
| RRIRARPPRLPRPRPRPSTAPRP | 0.482 |
| RRIRPRPPRLPRPRPRPYHMPRP | -0.316 |
| RRIRSRPPRLPRPRPRPLARPRP | 0.0314 |
| RRIRGRPPRLPRPRPRPHFIPRP | -0.139 |
| RRIRDRPPRLPRPRPRPHMSPRP | -0.00968 |
| RRIRHRPPRLPRPRPRPSIDPRP | -0.617 |
| RRIRQRPPRLPRPRPRPVAVPRP | 0.257 |
| RRIRPRPPRLPRPRPRPLEMPRP | 0.0597 |
| RRIRNRPPRLPRPRPRPGGYPRP | -0.0538 |
| RRIRDRPPRLPRPRPRPPLFPRP | 0.5 |

| Sequence | shrunken log2 fold change |
| --- | --- |
| RRIRCRPPRLPRPRPRPYVQPRP | -0.113 |
| RRIRARPPRLPRPRPRPATRPRP | 0.487 |
| RRIRWRPPRLPRPRPRPAECPRP | -0.0444 |
| RRIRQRPPRLPRPRPRPRQCPRP | 0.152 |
| RRIRDRPPRLPRPRPRPGPEPRP | 0.544 |
| RRIRCRPPRLPRPRPRPGNEPRP | -0.154 |
| RRIRMRPPRLPRPRPRPQMKPRP | 0.518 |
| RRIRKRPPRLPRPRPRPLAQPRP | 0.801 |
| RRIRDRPPRLPRPRPRPKGEPRP | 0.0647 |
| RRIRNRPPRLPRPRPRPQQCPRP | -0.0851 |
| RRIRSRPPRLPRPRPRPYVKPRP | -0.351 |
| RRIRHRPPRLPRPRPRPTPEPRP | -0.0453 |
| RRIRKRPPRLPRPRPRPCHGPRP | 0.0847 |
| RRIRPRPPRLPRPRPRPVRRPRP | 0.418 |
| RRIRGRPPRLPRPRPRPANKPRP | 0.209 |
| RRIRRRPPRLPRPRPRPGLTPRP | 0.508 |
| RRIRIRPPRLPRPRPRPYHLPRP | -0.115 |
| RRIRLRPPRLPRPRPRPWKWPRP | -0.184 |
| RRIRFRPPRLPRPRPRPCDFPRP | -0.255 |
| RRIRVRPPRLPRPRPRPKWVPRP | 0.0874 |
| RRIRCRPPRLPRPRPRPMAIPRP | -0.132 |
| RRIRKRPPRLPRPRPRPIFFPRP | 0.414 |
| RRIRVRPPRLPRPRPRPSWIPRP | -0.476 |
| RRIRPRPPRLPRPRPRPSFGPRP | -0.156 |
| RRIRSRPPRLPRPRPRPMYKPRP | -1.13 |

| Sequence | shrunken log2 fold change |
| --- | --- |
| RRIRTRPPRLPRPRPRPECIPRP | 0.0878 |
| RRIRWRPPRLPRPRPRPEHSPRP | 0.114 |
| RRIRFRPPRLPRPRPRPHTHPRP | -0.618 |
| RRIRARPPRLPRPRPRPSSEPRP | 0.271 |
| RRIRQRPPRLPRPRPRPINMPRP | -0.28 |
| RRIRERPPRLPRPRPRPSLWPRP | -0.151 |
| RRIRLRPPRLPRPRPRPIAVPRP | -0.16 |
| RRIRPRPPRLPRPRPRPSRYPRP | -0.163 |
| RRIRQRPPRLPRPRPRPMGNPRP | -0.136 |
| RRIRMRPPRLPRPRPRPDYNPRP | -0.21 |
| RRIRFRPPRLPRPRPRPMSVPRP | -0.482 |
| RRIRKRPPRLPRPRPRPSMCPRP | -0.472 |
| RRIRYRPPRLPRPRPRPWSFPRP | -0.522 |
| RRIRMRPPRLPRPRPRPDFMPRP | -0.0119 |
| RRIRNRPPRLPRPRPRPIQGPRP | -0.105 |
| RRIRQRPPRLPRPRPRPTLTPRP | 0.0596 |
| RRIRARPPRLPRPRPRPFVDPRP | 0.302 |
| RRIRERPPRLPRPRPRPEAEPRP | 0.315 |
| RRIRRRPPRLPRPRPRPHAWPRP | 0.438 |
| RRIRIRPPRLPRPRPRPKPPPRP | 0.269 |
| RRIRERPPRLPRPRPRPKLDPRP | -0.052 |
| RRIRNRPPRLPRPRPRPFWLPRP | -0.189 |
| RRIRIRPPRLPRPRPRPMLNPRP | -0.526 |
| RRIRYRPPRLPRPRPRPDNKPRP | -0.609 |
| RRIRNRPPRLPRPRPRPPSAPRP | 0.726 |

| Sequence | shrunken log2 fold change |
| --- | --- |
| RRIRSRPPRLPRPRPRPSNWPRP | -0.237 |
| RRIRQRPPRLPRPRPRPFHFPRP | -0.0115 |
| RRIRLRPPRLPRPRPRPQHMPRP | -0.767 |
| RRIRQRPPRLPRPRPRPDPGPRP | -0.00151 |
| RRIRPRPPRLPRPRPRPFYRPRP | 0.0278 |
| RRIRCRPPRLPRPRPRPNFEPRP | -0.0286 |
| RRIRYRPPRLPRPRPRPFLIPRP | -1.15 |
| RRIRPRPPRLPRPRPRPFYSPRP | -0.161 |
| RRIRVRPPRLPRPRPRPYLAPRP | -0.413 |
| RRIRWRPPRLPRPRPRPYTAPRP | -0.611 |
| RRIRHRPPRLPRPRPRPAVGPRP | 0.11 |
| RRIRMRPPRLPRPRPRPVRSPRP | 1.23 |
| RRIRTRPPRLPRPRPRPLYYPRP | -0.771 |
| RRIRWRPPRLPRPRPRPCSPPRP | -0.106 |
| RRIRLRPPRLPRPRPRPMRVPRP | 0.115 |
| RRIRYRPPRLPRPRPRPDLSPRP | -0.025 |
| RRIRHRPPRLPRPRPRPYYVPRP | -0.0196 |
| RRIRKRPPRLPRPRPRPGDGPRP | 3.56 |
| RRIRLRPPRLPRPRPRPSILPRP | -0.57 |
| RRIRCRPPRLPRPRPRPMSVPRP | -0.0655 |
| RRIRNRPPRLPRPRPRPKMHPRP | -0.0913 |
| RRIRSRPPRLPRPRPRPFMCPRP | -0.255 |
| RRIRVRPPRLPRPRPRPPLQPRP | 0.272 |
| RRIRNRPPRLPRPRPRPVSMPRP | -0.0312 |
| RRIRRRPPRLPRPRPRPECHPRP | 0.171 |

| Sequence | shrunken log2 fold change |
| --- | --- |
| RRIRERPPRLPRPRPRPRWIPRP | 1.93 |
| RRIRERPPRLPRPRPRPIFPPRP | -0.367 |
| RRIRWRPPRLPRPRPRPKRVPRP | 0.383 |
| RRIRERPPRLPRPRPRPYHAPRP | 0.00489 |
| RRIRDRPPRLPRPRPRPHMLPRP | -0.144 |
| RRIRWRPPRLPRPRPRPYKCPRP | 0.0561 |
| RRIRWRPPRLPRPRPRPSHQPRP | -0.0408 |
| RRIRNRPPRLPRPRPRPAKSPRP | 0.163 |
| RRIRFRPPRLPRPRPRPYSPPRP | -0.324 |
| RRIRYRPPRLPRPRPRPQGKPRP | -0.00664 |
| RRIRMRPPRLPRPRPRPNERPRP | 0.69 |
| RRIRCRPPRLPRPRPRPLEWPRP | 0.0823 |
| RRIRSRPPRLPRPRPRPFMPPRP | -0.149 |
| RRIRFRPPRLPRPRPRPFLHPRP | -0.329 |
| RRIRTRPPRLPRPRPRPVAKPRP | 0.111 |
| RRIRNRPPRLPRPRPRPECCPRP | 0.517 |
| RRIRFRPPRLPRPRPRPLFAPRP | 0.15 |
| RRIRKRPPRLPRPRPRPITWPRP | 0.0399 |
| RRIRKRPPRLPRPRPRPKGEPRP | 0.201 |
| RRIRMRPPRLPRPRPRPSFTPRP | -0.0116 |
| RRIRPRPPRLPRPRPRPLCCPRP | -0.105 |
| RRIRGRPPRLPRPRPRPTRLPRP | 0.939 |
| RRIRSRPPRLPRPRPRPRKEPRP | 0.131 |
| RRIRRRPPRLPRPRPRPDHDPRP | 0.335 |
| RRIRARPPRLPRPRPRPKKLPRP | 0.223 |

| Sequence | shrunken log2 fold change |
| --- | --- |
| RRIRERPPRLPRPRPRPGNIPRP | -0.989 |
| RRIRWRPPRLPRPRPRPTKKPRP | 0.0726 |
| RRIRARPPRLPRPRPRPLERPRP | -0.0328 |
| RRIRLRPPRLPRPRPRPKHDPRP | -0.0476 |
| RRIRMRPPRLPRPRPRPELFPRP | 3.28 |
| RRIRIRPPRLPRPRPRPPECPRP | -0.17 |
| RRIRARPPRLPRPRPRPHDNPRP | 0.00651 |
| RRIRPRPPRLPRPRPRPWYGPRP | -0.429 |
| RRIRMRPPRLPRPRPRPMYMPRP | 0.0751 |
| RRIRERPPRLPRPRPRPCDRPRP | -0.187 |
| RRIRWRPPRLPRPRPRPQWTPRP | 0.787 |
| RRIRTRPPRLPRPRPRPTSSPRP | 0.113 |
| RRIRSRPPRLPRPRPRPFHYPRP | -0.429 |
| RRIRDRPPRLPRPRPRPVDGPRP | 0.0169 |
| RRIRHRPPRLPRPRPRPALWPRP | 0.701 |
| RRIRRRPPRLPRPRPRPDPVPRP | 0.0811 |
| RRIRNRPPRLPRPRPRPRLTPRP | 0.252 |
| RRIRHRPPRLPRPRPRPHCPPRP | -0.207 |
| RRIRQRPPRLPRPRPRPTIMPRP | -0.127 |
| RRIRRRPPRLPRPRPRPMRHPRP | 1.18 |
| RRIRQRPPRLPRPRPRPIKTPRP | -0.0201 |
| RRIRPRPPRLPRPRPRPAYGPRP | 0.144 |
| RRIRTRPPRLPRPRPRPWSVPRP | -0.199 |
| RRIRARPPRLPRPRPRPITVPRP | -0.201 |
| RRIRVRPPRLPRPRPRPNTLPRP | -0.478 |
